The target of this assay is T1, Recombinant human IL-21 protein (25-155) (human, UniProt Q9HBE4 32-162).
T1 construct: also called recombinant IL-21; IL-21 recombinant protein
Nature of the assay: Quanterix Simoa sandwich pairing against recombinant IL-21 reference curve (100 ng/mL-1.0 fg/mL). Here is the method:
The antibodies of the present invention, AbM2, Ab2-1, and Ab3-1, are conjugated to beads (Quanterix Cat #101360) at 0.5 mg/mL and are biotinylated according to the manufacturer's protocol at a ratio of 40 to 1 biotin to antibody. Nine combinations of the three antibody pairs are generated and analyzed against a recombinant IL-21 reference curve (100 ng/mL-1.0 fg/mL). The beads are diluted in bead diluent (Quanterix, Cat #100458) and the detection antibodies are diluted in sample/detection buffer (Quanterix, Cat #101359). Two pairs of antibodies are moved into further optimization due to the ability to discriminate IL-21 concentrations in the fg/mL range. The first pair is Ab2-1 and AbM2 which perform well in either orientation. The second pair is Ab3-21 as capture and Ab2-1 as detection.

T1 sequence (Q9HBE4 other isoform, or with tags, fused parts or gaps limits assumed): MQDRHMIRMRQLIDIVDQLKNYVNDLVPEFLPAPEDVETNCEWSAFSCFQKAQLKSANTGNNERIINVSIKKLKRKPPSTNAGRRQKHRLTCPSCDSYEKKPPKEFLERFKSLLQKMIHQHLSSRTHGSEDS

B1: anti-human IL-21 antibody AbM2 (antibody, V domains shown)
VH: QVQLVQSGAEVKKPGASVKVSCKASGYTFTDYWMHWVRQAPGQGLEWMGLIDTSDSYTIYNQKFKGRVTMTRDTSTSTVYMELSSLRSEDTAVYYCARYGPLAMDYWGQGTLVTVSS
VL: DIQMTQSPSSLSASVGDRVTITCRASQDISNYLNWYQQKPGKAPKLLIYYTSRLHSGVPSRFSGSGSGTDFTLTISSLQPEDFATYYCQQFHTLRTFGGGTKVEIKR
notes: In the Simoa assays it is biotinylated (40:1 biotin to antibody)
As to B1, the binding result is listed as “binds”.

B2: anti-human IL-21 antibody Ab3-1 (antibody, mouse IgG1, kappa, V domains shown)
VH: QVQLKQSAAELARPGASVKMSCKASGYFFTLYMMHWAKQRPGQNLEWIGYINPSSGYTEYNQKFKDKTTLTADKSSSTAYMQLSSLTSEDSAIYYCLTDFDYWGQGTSLTVSS
VL: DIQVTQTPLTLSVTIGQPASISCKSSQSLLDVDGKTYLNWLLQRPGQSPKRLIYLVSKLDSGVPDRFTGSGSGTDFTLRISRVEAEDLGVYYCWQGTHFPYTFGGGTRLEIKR
notes: also called Ab34; Ab3-21
Regarding B2, the binding result is reported as “binds”.

(Values after patent US20190233508A1 (Eli Lilly, published 2019).)
